Results on one molecule are retold here after patent US12162911B2, “Pulmonary administration of pyocins for treating bacterial respiratory infections” (priority 2014, dated 2024).

One series concerns P. aeruginosa P17. As to the kind of experiment: Mouse model of acute lung infection, P. aeruginosa P17. Format: in vivo, Pseudomonas aeruginosa. The method, then: (§1) Model of acute lung infection. Female C57/BL6 mice were inoculated intranasally with 25 μl of bacterial culture containing approximately 10^7 CFU of the selected P. aeruginosa strain^36. Antibiotic treatments were administered at either 6 h pre-infection or 1 h post-infection and were administered only once. Pyocins or tobramycin dissolved in PBS were administered via intranasal administration as described above. Two different end-points were used in these experiments. In order to determine a reduction in the bacterial load of the lungs compared to the untreated controls, all mice in the experiment were culled by carbon dioxide asphyxiation at the same time; 4-6 h post infection. To determine if mice could survive infection after pyocin or tobramycin treatment, mice were monitored closely, culled by carbon dioxide asphyxiation when required as determined by a scoring system or culled at the pre-determined 24 h time point. Uninfected mice, treated with pyocins, were used as controls in the first series of experiments in order to ensure no adverse effects from pyocin treatment. These controls were stopped in later experiments in order to reduce the number of animals used, once it was clear that the pyocins were not harmful. For CFU determination, lungs were removed aseptically and kept on ice in 750 μl of PBS until homogenised. Serial 10-fold dilutions of the homogenised lung were plated on Pseudomonas selective agar (20 g peptone, 1.5 g K2HPO4, 1.5 g MgSO4·7H2O, 10 ml glycerol, 15 g agar, 0.025 g Irgasan per litre) and incubated at 37° C. for 24 h and then room temperature for 24 h before the colonies were counted.
(§2) Since strains of P. aeruginosa are phenotypically diverse, we tested the efficacy of the pyocins against three additional isolates: P. aeruginosa P17 and P. aeruginosa P5 (mucoid), both from cystic fibrosis patients and P. aeruginosa E2, an environmental isolate. Pyocin S2 was not active against P. aeruginosa P5 or P. aeruginosa E2 in vitro therefore was not used to treat these strains in vivo and similarly pyocin L1 was not used against P. aeruginosa P17. […] Lung homogenates from P. aeruginosa E2-infected AP41-treated mice contained high levels of viable bacteria, reduced only 10-fold relative to control mice (Table 1). […] Thus, pyocins show strong efficacy against diverse strains of P. aeruginosa with pyocin S5 treatment displaying the largest effect on reducing bacterial load.

In the next series the test system is P. aeruginosa E2. The series can be described thus: Mouse model of acute lung infection, P. aeruginosa E2. In kind it is in vivo, Pseudomonas aeruginosa. Here is the method: as §1, §2
Series [1] relates to P8AP41T. As to the kind of experiment: Mouse model of acute lung infection, AP41 tolerant strain P8AP41T. In kind it is in vivo, Pseudomonas aeruginosa. To be noted: 3 mg ml^−1 1 h post-infection. The method, then: as §1
(§3) In order to determine if pyocin tolerance or resistance was acquired upon pyocin treatment in vivo, viable bacteria recovered from mice that survived infection to the 24 h end-point, in all experiments discussed in this work, were tested for pyocin susceptibility. From these experiments no pyocin resistant colonies were isolated. […] Importantly, sensitivity to pyocins S5 and L1 were unaffected in vitro in this pyocin AP41-tolerant strain (FIG. 3a) and this was also shown to be the case in vivo when mice were infected with P8AP41T.

The test system of series [2] is P8AP41T. The series can be described thus: Pyocin sensitivity in vitro (spot tests) of strain P8AP41T. Format: cell-based, Pseudomonas aeruginosa. To be noted: spot tests, FIG. 3a. The method, then: Pyocin sensitivity assays: overlay spot plate method. Soft agar overlay spot plates were performed using the method of ^35. 150 μl of test strain culture at OD600 nm=0.6 was added to 6 ml of 0.8% soft agar and poured over an LB agar plate. 5 μl of bacteriocin, lung homogenate or blood at varying concentrations was spotted onto the plates and incubated for 24 h at 37° C.
as §3

Series [3] in a line: Pyocin S5-specific antibody titers by indirect ELISA. Here is the method: Determination of pyocin S5-specific antibody titers by indirect ELISA. For analysis of IgG and IgA responses, blood was obtained by cardiac puncture immediately after carbon dioxide asphyxiation. Serum was obtained by centrifugation of samples at 13,500 g for 10 min followed by collection of the supernatant. Serum was stored at −80° C. Greiner 96-well plates (MaxiSorp) were coated with purified recombinant pyocin S5 (7.5 μg ml^−1, 50 μl/well) protein in PBS overnight at 4° C. The plates were washed three times with phosphate buffered saline+0.05% TWEEN20 (PBST) and then blocked for 1 h at 37° C. with 150 μl of blocking buffer (1% bovine serum albumin (BSA) in PBS). After washing, five-fold serially diluted samples were added, starting at a dilution of 1/50 in blocking buffer, and incubated for 2 h at 37° C. Serum from mice given pyocin S5+Freunds complete/incomplete subcutaneously three times over four weeks was used as a positive control and uncoated wells were used as negative controls. Serum from individual mice were analysed and replicate samples were carried out on separate days. After washing with PBST, 50 μl of anti-mouse IgG (Fc specific)-peroxidase antibody ((1/1000 dilution) Sigma, UK) or anti-mouse IgA (α-chain specific)-peroxidase antibody ((1/250 dilution) Sigma, UK) in PBST/0.1% BSA was added and plates were incubated for 1 h at 37° C. Plates were developed using […] OPD (o-Phenylenediamine dihydrochloride) tablets (Sigma, UK) and reactions were stopped using 3 M HCl. Optical densities (ODs) were read at 450 nm using a FLUOstar OPTIMA plate reader (BMG labtech, Germany).
On the technique in general: An ELISA detects its analyte on a solid surface through an enzyme-linked reagent.

Where [4] appears, read: mice repeatedly exposed I.N., 75 μg/dose three times (FIG. 8b).
The mark [5] stands for this setting: mice repeatedly exposed I.P., 75 μg/dose three times (FIG. 8d).

“Also recorded” adds a separate entry of the source.

B1: Pyocin S5: S-type pyocin, SEQ ID NO: 13; binds FptA, pore-forming effector (protein, listed as Pseudomonas aeruginosa)
chain: MSNDNEVPGSMVIVAQGPDDQYAYEVPPIDSAAVAGNMFGDLIQREIYLQKNIYYPVRSIFEQGTKEKKEINKKVSDQVDGLLKQITQGKREATRQERVDVMSAVLHKMESDLEGYKKTFTKGPFIDYEKQSSLSIYEAWVKIWEKNSWEERKKYPFQQLVRDELERAVAYYKQDSLSEAVKVLRQELNKQKALKEKEDLSQLERDYRTRKANLEMKVQSELDQAGSALPPLVSPTPEQWLERATRLVTQAIADKKQLQTTNNTLIKNSPTPLEKQKAIYNGELLVDEIASLQARLVKLNAETTRRRTEAERKAAEEQALQDAIKFTADFYKEVTEKFGARTSEMARQLAEGARGKNIRSSAEAIKSFEKHKDALNKKLSLKDRQAIAKAFDSLDKQMMAKSLEKFSKGFGVVGKAIDAASLYQEFKISTETGDWKPFFVKIETLAAGAAASWLVGIAFATATATPIGILGFALVMAVTGAMIDEDLLEKANNLVISI
In the case of B1, the survival / protection result in the series with P. aeruginosa P17 (pyocin 3 mg ml^−1, endpoint 24 h, infected controls culled at 4 h) is “survived until the 24 h endpoint”. Moreover, in the series on P. aeruginosa P17 (pyocin 3 mg ml^−1, treated mice survived to 24 h, no treatment 4.4 × 10^5 CFU/lung), the “bacterial count in lung, P17” value is listed as “No colonies”. In addition, in the series on P. aeruginosa E2 (pyocin 3 mg ml^−1, endpoint 24 h, infected controls culled at 5.5 h), the survival / protection entry is “survived until the 24 h endpoint”. Besides, the “bacterial count in lung, E2” value with P. aeruginosa E2 (pyocin 3 mg ml^−1, treated mice survived to 24 h, no treatment 1.5 × 10^5 CFU/lung) is listed as “No colonies”. Besides, in the series with P8AP41T [1] (24 h (FIG. 3b)), the “bacterial numbers in lung homogenates” value is “significantly reduced bacterial numbers; also recorded: No colonies were recovered”. Also, the survival result with P8AP41T [1] (endpoint 24 h, PBS controls culled 6 h post-infection (FIG. 3b)) was “survived until the endpoint of the experiment at 24 h”. The “sensitivity of the pyocin AP41-tolerant strain in vitro” value in the series on P8AP41T [2] was “unaffected”. For the same molecule, in series [3] (setting [4]), the “pyocin-S5 specific IgA in serum” value is “no IgA antibodies detected” and the “pyocin-S5 specific IgG, fold less than the Freunds complete/incomplete control group” value is listed as 10 fold. In addition, in series [3] (setting [5]), the “pyocin S5-specific IgA in serum” value is “no pyocin S5-specific IgA was detected” and the “pyocin S5-specific IgG, fold less than the Freunds complete/incomplete control group” value is 1000 fold.
